Measured values: PMC8270467, “A MYB4-MAN3-Mannose-MNB1 signaling cascade regulates cadmium tolerance in Arabidopsis”

B1: ProMAN3 P2 probe (dsDNA)
DNA 1: AAGATGGGTTTGCTTGGTGAGACCACAAGA
DNA 2: TCTTGTGGTCTCACCAAGCAAACCCATCTT
B2: ProMAN3 P3 probe (dsDNA)
DNA 1: CAAATCATATAGTTTGGTGACTGATTTCAA
DNA 2: TTGAAATCAGTCACCAAACTATATGATTTG
B3: ProMAN3 P4 probe (dsDNA)
DNA 1: AGTTAGTCAATGAACGGTTTTCAAATAAAG
DNA 2: CTTTATTTGAAAACCGTTCATTGACTAACT
B4: ProMAN3 P1 probe (dsDNA)
DNA 1: GGTTTACAAATCAACAACCACTGAACTTTT
DNA 2: AAAAGTTCAGTGGTTGTTGATTTGTAAACC

Molecular target: MYB4-MBP (Arabidopsis thaliana, UniProt Q9SZP1 1-282)
Sequence (Q9SZP1 whole entry): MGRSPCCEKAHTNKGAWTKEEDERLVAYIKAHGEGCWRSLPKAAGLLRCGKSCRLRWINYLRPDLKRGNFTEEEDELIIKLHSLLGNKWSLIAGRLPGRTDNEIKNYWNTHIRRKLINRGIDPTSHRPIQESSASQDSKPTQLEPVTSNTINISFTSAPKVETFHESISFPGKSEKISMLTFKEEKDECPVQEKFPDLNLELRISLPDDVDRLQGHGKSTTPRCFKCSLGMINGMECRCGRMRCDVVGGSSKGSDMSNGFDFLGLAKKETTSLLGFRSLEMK
Experiment: EMSA; LightShift Chemiluminescent EMSA Kit (Thermo), manufacturer's protocol; buffer, salt, pH and temperature not stated
Conditions: protein: recombinant; tags: MBP; label: 3' biotin on sense strand; blunt

Binder	binding result
B1	binds
B2	binds
B3	binds
B4	binds
